Test results taken from the RNAGym collection of RNA variant scans (doi:10.1073/pnas.2313332121).

B1: TPR t1 (parent)
chain: GACCAAUCUGCCCUCAGAGCUCGAGAACAUCUUCGGAUGCAGAGGAGGCAGGCUUCGGUGGCGCGAUAGCGCCAACGUCCUCAACCUCCAAUGCAUCCCACCACAUGAUGAUGCCUGAAGAGCCUUGGUUUUUUG

Variants of: B1
Test: polymerase ribozyme fitness, log enrichment relative to wild type (log ratio); higher = more active; in vitro selection for triplet polymerase activity
Procedure, shortened: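 Fitness measures genotype enrichment against wild-type enrichment on a logarithmic scale, with inverse-variance-weighted averaging of replicates. The logarithm is base 2, and genotypes were kept only with ≥10 input reads and ≥1 read per output in Illumina sequencing. The sequenced libraries came from one triplicate in vitro selection round, including frozen incubation at −7 °C, of PCR-built, transcribed mutant libraries of each subunit of a heterodimeric triplet polymerase ribozyme.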

Variant	polymerase ribozyme fitness (log ratio)
GACCAAUCUGCCCUCAGAGCUCGAGAACAUCUUCGGGUGCAGAGGAGGCAGGCUUCGGUGGCGCGAUAGCGCCAACGUCCUCAACAUCCAAUGCAUCCCACCACAUGAUGAUGCCUGAAGAGCCUUGGUUUUUUG	-1.81
GACCAAUCUGCCCUCAGAGCUCGAGAACAUCUUCGGGUGCAGAGGAGGCAGGCUUCGGUGGAGCGAUAGCGCCAACGUCCUCAAUCUCCAAUGCAUCCCACCACAUGAUGAUGCCUGAAGAGCCUUGGUUUUUUG	-5.14
GACCAAUCUGCCCUCAGAGCUCGAGAACAUCUUCGGGUGCAGAGGAGGCAGGCUUCGGUGGCGCGAUAGCGCCAACGUCCUCAACCUCCAAUGCAUCCCACCACAUGAUGCUGCCUGAAGAGCGUUGGUUUUUUG	0.322
GACCAAUCUGCCCUCAGAGCUCGAGAACAUCUUCGGGUGCAGAGGAGACAGGCUUGGGUGGCGCGAUAGCGCCAACGUCCUCAACCUCCAAUACAUCCCACCACAUGAUCAUGCCUGAAGAGCCUUGGUUUUUUG	-5.64
GACCAAUCUGCCCUCAGAGCUCGAGAACAUCUUCGGGUGCAGAGGAGGCACGCUUCGGUGGCGCGAUAGCGCCAACCUCAUCAACCUCCAAUGCAUCCCACCACAUGAUGAUGCCUGAACAGCCUUGCUUUUUUG	-5.93
GACCAAUCUGCCCUCAGAGCUCGAGAACAUCUUCGGGUGCAGAGGAGGCAGGCUUCGGUGGCGCGAUAGCGCCAACGUCUUCAACCUCCAAUGCAUCCCACCACAUGAUGAUGCCUGAAGAGCCUUGGUUUUUUG	-2.46
GACCAAUCUGCCCUCAGAGCUCGAGAACAUCUUCGGGUGCAGAGGAGGCAGGCUUCGGUGGCGUGAUAGCGCCAACGCCCUCAACGUCCAAUGCAUCCCACCACAUGAUGAUGCCUGAAGAGCCUUGGUUUUUUG	-4.56
GACCAAUCUGCCCUCAGAGCUCGAGAACAUCUUCGGGUGCAGAGGAGGCAGGCUUCGGUGGCGCGAUAGCGCCAACGUCCUCAACCUCCAAUGCAUCCCUCCACAUGAUGAUGCCUGAAGAGCCUUGGUUUUUUG	-1.32
GACCAAUCUGCCCUCAGAGCUCGAGAACAUCUUCGGGUGCAGAGGAGGCAGGCUUCGGUGGCGCGAUAGCGUCAACGUCCUCAACCUCCAAUGCAUCCCACCACAUGAUGAUGCCUGAAGAGCCUUGGUUUUUUG	-0.261
GACCAAUCUGCCCUCAGAGCUCGAGAACAUCUUCGGGUGCAGAGGAGGAAGGCUUAGGUGGCGCGAUAGCGCCAACGUCCUCAACCUCCAAUGCAUCCCACCACAUGAUGAUGCCUGAAGAGCCUUGCUUUUUUG	-3.61
GACCAAUCUGCCCUCAGAGCUCGAGAACAUCUUCGGGUGCAGAGGAGGCAGGCUUCGGUGGUGCGAUAGCGCCAACGUCCUCAACCUCCAAUGCAUCCCACCACAUGAUGAUGCCUGAAGAGCCUUGGUUUUUUG	-0.523
GACCAAUCUGCCCUCAGAGCUCGAGAACAUCUUCGGGUGCAGAGGAGGCAGGCUUUGGUGGCGCGAUAGCGCCAACGUCCUCAACCUCCAAUGCAUCCCUCAACAUGAUGAUGCCAGAAGAGCCUUGGUUUUUUG	-6.14
GACCAAUCUGCCCUCAGAGCUCGAGAACAUCUUCGGGUGCAGAGGAGGGAGGCUUCGGUGGCGCGAUAGCGCCAACGUCCGCAACCUCCAAUGCAUCCCACCACAUGAUGAUGCCUGAAGAGCCUUGGUUUUUUG	-2.07
GACCAAUCUGCCCUCAGAGCUCGAGAACAUCUUCGGGUGCAGAGGUGGCAGGCUUAGGUGGCGCGAUAGCGCCAACGUCCUCAACCUCCAAUGCAUCCCACCACAUGAUGAUGCCUGAAAAGCCUUGGUUUUUUG	-1.7
GACCAAUCUGCCCUCAGAGCUCGAGAACAUCUUCGGGUGCAGAGGAGACAGGCUUGGGUGGCGCGAUAGCUCCAACGUCCUCAACCUCCAAUGCAUCCCACCACAUGAUGAUGCCUCAAGAGCCUUGGUUUUUUG	-6.21
GACCAAUCUGCCCUCAGAGCUCGAGAACAUCUUCGGGUGCAGAGGAGGCAGGCUUCGGUGGCGCGAUGGCGCCAACGUCCUCAACCUCCAAUGCAUCCCACCACAUGAUGCUGCCUGAAGAGCGUUGGUUUUUUG	-3.95
GACCAAUCUGCCCUCAGAGCUCGAGAACAUCUUCGGGUGCAGAGGAGGCAGGCUUCGGUGGCGCGAUAGCGCCAACGUCCUCAACCUACAUUGCAUCCCACCACAUGAUGAUGCCUGAAGAGCCUUGGUUUUUUG	-4.17
GACCAAUCUGCCCUCAGAGCUCGAGAACAUCUUCGGGUGCAGAGGAGGCAGGAUUCUGUGGCGCGAUAGCGCCAACGUCCUCAACCUCCAAUGCAUCCCACCACAUGAUGAUGCCUGAAGAGCCUUGGUUUUUUG	0.602
GACCAAUCUGCCCUCAGAGCUCGAGAACAUCUUCGGGUGCAGAGGAGGCAGGCUUCGGUGGCGCGAUAGCGCCAACGUGCUCAACCUCCAAUGCAUCCCACCACAUGAUGAUGCCUGAAGAGCCUUGGUUUUUUG	-1.49
GACCAAUCUGCCCUCAGAGCUCGAGAACAUCUUCGGGUGCAGAGGAGGCAGGAUUCGGUGGCUCGAUAGCGCCAACGUCCUCAACCUCCAAUGCAUCCCACCACAUGAUGAUGCCUGAAGAGCCAUGGUUUUUUG	-3.34
GACCAAUCUGCCCUCAGAGCUCGAGAACAUCUUCGGGUGCAGAGGAGGCAGGAUUCGGUGGCGCGAUAGCGCGAACGUCCUCAACCUCCAAUGCAUCCCACCACGUGAGGAAGCCUGAAGAGCCUUGGUUUUUUG	-6.74
